Measurements as given in paper PMC9198812, “Residues located in the primase domain of the bacteriophage T7 primase-helicase are essential for loading the hexameric complex onto DNA” (The Journal of Biological Chemistry, 2022).

Biological target: the molecule itself
Test: mass photometry; self-association, monomers to hexamer; 8.7 nM gp4 (hexamer concentration) in 40 mM Tris-HCl pH 7.5, 150 mM KCl, 10 mM MgCl2, 25 °C, 15 min, with 10 nM 50-nt ssDNA and 1 mM [β,γ-CH2] dTTP; Refeyn OneMP

Row | Protein | stoichiometry N
1 | bacteriophage T7 primase-helicase gp4, wild type (63 kDa form) (enzyme, UniProt P03692 1-566, looked up, bacteriophage T7 gene 4 primase-helicase, full-length 63 kDa form (residues 1-566); also called WT gp4; gp4A) MDNSHDSDSVFLYHIPCDNCGSSDGNSLFSDGHTFCYVCEKWTAGNEDTKERASKRKPSGGKPMTYNVWNFGESNGRYSALTARGISKETCQKAGYWIAKVDGVMYQVADYRDQNGNIVSQKVRDKDKNFKTTGSHKSDALFGKHLWNGGKKIVVTEGEIDMLTVMELQDCKYPVVSLGHGASAAKKTCAANYEYFDQFEQIILMFDMDEAGRKAVEEAAQVLPAGKVRVAVLPCKDANECHLNGHDREIMEQVWNAGPWIPDGVVSALSLRERIREHLSSEESVGLLFSGCTGINDKTLGARGGEVIMVTSGSGMGKSTFVRQQALQWGTAMGKKVGLAMLEESVEETAEDLIGLHNRVRLRQSDSLKREIIENGKFDQWFDELFGNDTFHLYDSFAEAETDRLLAKLAYMRSGLGCDVIILDHISIVVSASGESDERKMIDNLMTKLKGFAKSTGVVLVVICHLKNPDKGKAHEEGRPVSITDLRGSGALRQLSDTIIALERNQQGDMPNLVLVRILKCRFTGDTGIAGYMEYNKETGWLEPSSYSGEEESHSESTDWSNDTDF | 6
2 | bacteriophage T7 primase-helicase gp4 Y111A (63 kDa form) (enzyme, UniProt P03692 1-566, looked up, bacteriophage T7 gene 4 primase-helicase, 63 kDa form (residues 1-566), with Y111A made by site-directed mutagenesis on pET28-gp4A; also called Y111A gp4; gp4-Y11A [sic]) MDNSHDSDSVFLYHIPCDNCGSSDGNSLFSDGHTFCYVCEKWTAGNEDTKERASKRKPSGGKPMTYNVWNFGESNGRYSALTARGISKETCQKAGYWIAKVDGVMYQVADARDQNGNIVSQKVRDKDKNFKTTGSHKSDALFGKHLWNGGKKIVVTEGEIDMLTVMELQDCKYPVVSLGHGASAAKKTCAANYEYFDQFEQIILMFDMDEAGRKAVEEAAQVLPAGKVRVAVLPCKDANECHLNGHDREIMEQVWNAGPWIPDGVVSALSLRERIREHLSSEESVGLLFSGCTGINDKTLGARGGEVIMVTSGSGMGKSTFVRQQALQWGTAMGKKVGLAMLEESVEETAEDLIGLHNRVRLRQSDSLKREIIENGKFDQWFDELFGNDTFHLYDSFAEAETDRLLAKLAYMRSGLGCDVIILDHISIVVSASGESDERKMIDNLMTKLKGFAKSTGVVLVVICHLKNPDKGKAHEEGRPVSITDLRGSGALRQLSDTIIALERNQQGDMPNLVLVRILKCRFTGDTGIAGYMEYNKETGWLEPSSYSGEEESHSESTDWSNDTDF | 6
